{
  "source": "patent US20120034160A1",
  "about": "(AbbVie / Abbott, published 2012)",
  "binders": {"B1": {"name": "DVD1283 (bispecific antibody, human IgG1, kappa)", "heavy": "not shown", "light": "EIVLTQSPDFQSVTPKEKVTITCRASQNIGSELHWYQQKPDQSPKLLIKYASHSISGVPSRFSGSGSGTDFTLTINGLEAEDAATYYCHQSDTLPHTFGQGTKVDIKRTVAAPDIQMTQSPSSLSASVGDRVTITCRASGNIHNYLTWYQQTPGKAPKLLIYNAKTLADGVPSRFSGSGSGTDYTFTISSLQPEDIATYYCQHFWSIPYTFGQGTKLQITRTVAAPSVFIFPPSDEQLKSGTASVVCLLNNFYPREAKVQWKVDNALQSGNSQESVTEQDSKDSTYSLSSTLTLSKADYEKHKVYACEVTHQGLSSPVTKSFNRGEC"}, "B2": {"name": "DVD1285 (bispecific antibody, human IgG1, kappa)", "heavy": "not shown", "light": "B1 light"}, "B3": {"name": "DVD1277 (bispecific antibody, human IgG1, kappa)", "heavy": "not shown", "light": "EIVLTQSPDFQSVTPKEKVTITCRASQDIGSELHWYQQKPDQPPKLLIKYASHSTSGVPSRFSGSGSGTDFTLTINGLEAEDAGTYYCHQTDSLPYTFGPGTKVDIKRTVAAPDTQVTQSPSSLSASVGDRVTITCITSTDIDVDMNWYQQKPGKPPKLLISQGNTLRPGVPSRFSSSGSGTDFTFTISSLQPEDFATYYCLQSDNLPLTFGQGTKLEIKRTVAAPSVFIFPPSDEQLKSGTASVVCLLNNFYPREAKVQWKVDNALQSGNSQESVTEQDSKDSTYSLSSTLTLSKADYEKHKVYACEVTHQGLSSPVTKSFNRGEC"}, "B4": {"name": "DVD1281 (bispecific antibody, human IgG1, kappa)", "heavy": "not shown", "light": "B3 light with D114E, Q116T"}, "B5": {"name": "DVD1287 (bispecific antibody, human IgG1, kappa)", "heavy": "not shown", "light": "B3 light with D28N, P43S, T55I, G84A, T91S, S93T, Y96H, P100Q"}, "B6": {"name": "DVD1282 (bispecific antibody, human IgG1, kappa)", "heavy": "not shown", "light": "DIQMTQSPSSLSASVGDRVTITCRASGNIHNYLTWYQQTPGKAPKLLIYNAKTLADGVPSRFSGSGSGTDYTFTISSLQPEDIATYYCQHFWSIPYTFGQGTKLQITRTVAAPEIVLTQSPDFQSVTPKEKVTITCRASQNIGSELHWYQQKPDQSPKLLIKYASHSISGVPSRFSGSGSGTDFTLTINGLEAEDAATYYCHQSDTLPHTFGQGTKVDIKRTVAAPSVFIFPPSDEQLKSGTASVVCLLNNFYPREAKVQWKVDNALQSGNSQESVTEQDSKDSTYSLSSTLTLSKADYEKHKVYACEVTHQGLSSPVTKSFNRGEC"}, "B7": {"name": "DVD1284 (bispecific antibody, human IgG1, kappa)", "heavy": "not shown", "light": "B6 light"}, "B8": {"name": "DVD1278 (bispecific antibody, human IgG1, kappa)", "heavy": "not shown", "light": "DTVVTQSPAFLSVTPGEKVTITCITSTDIDVDMNWYQQKPDQPPKLLISQGNTLRPGVPSRFSSSGSGTDFTFTISSLEAEDAATYYCLQSDNLPLTFGQGTKLEIKRTVAAPEIVLTQSPDFQSVTPKEKVTITCRASQDIGSELHWYQQKPDQPPKLLIKYASHSTSGVPSRFSGSGSGTDFTLTINGLEAEDAGTYYCHQTDSLPYTFGPGTKVDIKRTVAAPSVFIFPPSDEQLKSGTASVVCLLNNFYPREAKVQWKVDNALQSGNSQESVTEQDSKDSTYSLSSTLTLSKADYEKHKVYACEVTHQGLSSPVTKSFNRGEC"}, "B9": {"name": "DVD1288 (bispecific antibody, human IgG1, kappa)", "heavy": "not shown", "light": "B8 light with D141N, P156S, T168I, G197A, T204S, S206T, Y209H, P213Q"}, "B10": {"name": "DVD1280 (bispecific antibody, human IgG1, kappa)", "heavy": "not shown", "light": "ETTVTQSPSSLSASVGDRVTITCITSTDIDVDMNWYQQKPGKPPKLLISQGNTLRPGVPSRFSSSGSGTDFTFTISSLQPEDFATYYCLQSDNLPLTFGQGTKLEIKRTVAAPEIVLTQSPDFQSVTPKEKVTITCRASQDIGSELHWYQQKPDQPPKLLIKYASHSTSGVPSRFSGSGSGTDFTLTINGLEAEDAGTYYCHQTDSLPYTFGPGTKVDIKRTVAAPSVFIFPPSDEQLKSGTASVVCLLNNFYPREAKVQWKVDNALQSGNSQESVTEQDSKDSTYSLSSTLTLSKADYEKHKVYACEVTHQGLSSPVTKSFNRGEC"}, "B11": {"name": "DVD1286 (bispecific antibody, human IgG1, kappa)", "heavy": "not shown", "light": "B10 light with E1D, T3Q, D141N, P156S, T168I, G197A, T204S, S206T, Y209H, P213Q"}, "B12": {"name": "DVD1290 (bispecific antibody, human IgG1, kappa)", "heavy": "not shown", "light": "B10 light with D141N, P156S, T168I, G197A, T204S, S206T, Y209H, P213Q"}, "B13": {"name": "DVD1279 (bispecific antibody, human IgG1, kappa)", "heavy": "not shown", "light": "EIVLTQSPDFQSVTPKEKVTITCRASQDIGSELHWYQQKPDQPPKLLIKYASHSTSGVPSRFSGSGSGTDFTLTINGLEAEDAGTYYCHQTDSLPYTFGPGTKVDIKRTVAAPDTVVTQSPAFLSVTPGEKVTITCITSTDIDVDMNWYQQKPDQPPKLLISQGNTLRPGVPSRFSSSGSGTDFTFTISSLEAEDAATYYCLQSDNLPLTFGQGTKLEIKRTVAAPSVFIFPPSDEQLKSGTASVVCLLNNFYPREAKVQWKVDNALQSGNSQESVTEQDSKDSTYSLSSTLTLSKADYEKHKVYACEVTHQGLSSPVTKSFNRGEC"}, "B14": {"name": "DVD1289 (bispecific antibody, human IgG1, kappa)", "heavy": "not shown", "light": "B13 light with D28N, P43S, T55I, G84A, T91S, S93T, Y96H, P100Q"}},
  "note": "Residue numbers refer to the chain shown, from its start.",
  "data": [
    {"target": "Recombinant Human IL-1β (human, UniProt P01584 117-269)", "assay": "cell-based or functional assay", "units": {"C-Terminal VD IL-1β Neutralization Assay EC50": "nM", "N-Terminal VD IL-1β Neutralization Assay EC50": "nM"}, "values": [
      {"binder": "B1", "C-Terminal VD IL-1β Neutralization Assay EC50": 7.61},
      {"binder": "B2", "C-Terminal VD IL-1β Neutralization Assay EC50": 1.27},
      {"binder": "B3", "C-Terminal VD IL-1β Neutralization Assay EC50": "> 20"},
      {"binder": "B4", "C-Terminal VD IL-1β Neutralization Assay EC50": "> 150"},
      {"binder": "B5", "C-Terminal VD IL-1β Neutralization Assay EC50": "> 50"},
      {"binder": "B6", "N-Terminal VD IL-1β Neutralization Assay EC50": 0.0091},
      {"binder": "B7", "N-Terminal VD IL-1β Neutralization Assay EC50": 0.0065},
      {"binder": "B8", "N-Terminal VD IL-1β Neutralization Assay EC50": 0.145},
      {"binder": "B9", "N-Terminal VD IL-1β Neutralization Assay EC50": 0.212},
      {"binder": "B10", "N-Terminal VD IL-1β Neutralization Assay EC50": 0.149},
      {"binder": "B11", "N-Terminal VD IL-1β Neutralization Assay EC50": 0.165},
      {"binder": "B12", "N-Terminal VD IL-1β Neutralization Assay EC50": 0.252},
      {"binder": "B13", "C-Terminal VD IL-1β Neutralization Assay EC50": "> 200"},
      {"binder": "B14", "C-Terminal VD IL-1β Neutralization Assay EC50": 18.8}
    ]},
    {"target": "T1, Recombinant Human IL-17 (human, UniProt Q16552 20-155, limits assumed)", "T1 sequence (looked up)": "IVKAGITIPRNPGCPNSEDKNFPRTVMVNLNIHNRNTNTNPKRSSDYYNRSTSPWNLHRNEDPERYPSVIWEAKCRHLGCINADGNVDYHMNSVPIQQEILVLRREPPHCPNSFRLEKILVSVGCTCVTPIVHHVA", "assay": "cell-based or functional assay", "units": {"N-terminal VD IL-17 Neutralization Assay EC50": "nM", "C-terminal VD IL-17 Neutralization Assay EC50": "nM"}, "values": [
      {"binder": "B1", "N-terminal VD IL-17 Neutralization Assay EC50": 0.0238},
      {"binder": "B2", "N-terminal VD IL-17 Neutralization Assay EC50": 0.0021},
      {"binder": "B3", "N-terminal VD IL-17 Neutralization Assay EC50": 0.0092},
      {"binder": "B4", "N-terminal VD IL-17 Neutralization Assay EC50": 0.0027},
      {"binder": "B5", "N-terminal VD IL-17 Neutralization Assay EC50": 0.0035},
      {"binder": "B6", "C-terminal VD IL-17 Neutralization Assay EC50": "> 20"},
      {"binder": "B7", "C-terminal VD IL-17 Neutralization Assay EC50": "> 20"},
      {"binder": "B8", "C-terminal VD IL-17 Neutralization Assay EC50": 0.346},
      {"binder": "B9", "C-terminal VD IL-17 Neutralization Assay EC50": 0.111},
      {"binder": "B10", "C-terminal VD IL-17 Neutralization Assay EC50": 0.256},
      {"binder": "B11", "C-terminal VD IL-17 Neutralization Assay EC50": 0.259},
      {"binder": "B12", "C-terminal VD IL-17 Neutralization Assay EC50": 0.0181},
      {"binder": "B13", "N-terminal VD IL-17 Neutralization Assay EC50": 0.0052},
      {"binder": "B14", "N-terminal VD IL-17 Neutralization Assay EC50": 0.096}
    ]}
  ]
}
